Two molecules from publication PMC8103107, “Myeloid‐resident neuropilin‐1 promotes choroidal neovascularization while mitigating inflammation” (EMBO Molecular Medicine, 2021) can be followed below.

In the test the target is T1, recombinant NRP1-derived trap consisting of the extracellular domain of NRP1 (UniProt O14786 22-856).
T1 construct: also called soluble NRP1; soluble receptor Neuropilin-1; source: purified recombinant
T1 sequence (looked up): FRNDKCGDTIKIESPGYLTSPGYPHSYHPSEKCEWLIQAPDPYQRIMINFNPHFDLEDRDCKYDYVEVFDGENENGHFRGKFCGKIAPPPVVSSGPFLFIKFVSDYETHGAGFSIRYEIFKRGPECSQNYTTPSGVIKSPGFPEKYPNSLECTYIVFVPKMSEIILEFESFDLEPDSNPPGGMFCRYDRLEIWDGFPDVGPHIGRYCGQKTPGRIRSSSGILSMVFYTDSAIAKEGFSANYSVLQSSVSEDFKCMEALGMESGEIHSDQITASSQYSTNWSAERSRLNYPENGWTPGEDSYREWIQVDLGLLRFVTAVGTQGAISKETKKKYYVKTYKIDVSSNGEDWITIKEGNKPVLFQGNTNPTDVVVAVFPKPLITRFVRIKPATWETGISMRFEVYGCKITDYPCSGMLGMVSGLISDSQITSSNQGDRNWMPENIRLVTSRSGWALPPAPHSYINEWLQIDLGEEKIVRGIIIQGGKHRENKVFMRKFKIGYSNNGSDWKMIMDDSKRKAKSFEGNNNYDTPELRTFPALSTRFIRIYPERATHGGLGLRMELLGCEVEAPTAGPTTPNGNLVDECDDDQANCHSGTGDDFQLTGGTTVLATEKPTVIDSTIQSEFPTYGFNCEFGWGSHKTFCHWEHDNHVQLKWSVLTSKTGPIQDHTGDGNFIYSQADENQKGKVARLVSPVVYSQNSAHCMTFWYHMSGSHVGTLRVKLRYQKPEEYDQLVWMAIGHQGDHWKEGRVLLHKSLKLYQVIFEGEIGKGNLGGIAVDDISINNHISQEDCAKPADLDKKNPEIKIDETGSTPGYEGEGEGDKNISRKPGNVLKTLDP
Nature of the test: SPR; Biacore T200; trap immobilised by amine coupling on a CM4 chip (100-150 RU); SEMA3A or VEGF-A injected at 12.5-100 nM, 40 ul/min, PBS with 0.025% (v/v) Tween-20; global fit to a one-site Langmuir binding model. As to conditions: both partners purified. (In SPR one partner is held on a chip, and binding of the other changes the refractive index at the surface.)

B1: Semaphorin 3A (ligand, UniProt Q14563 21-771, looked up)
chain: NYQNGKNNVPRLKLSYKEMLESNNVITFNGLANSSSYHTFLLDEERSRLYVGAKDHIFSFDLVNIKDFQKIVWPVSYTRRDECKWAGKDILKECANFIKVLKAYNQTHLYACGTGAFHPICTYIEIGHHPEDNIFKLENSHFENGRGKSPYDPKLLTASLLIDGELYSGTAADFMGRDFAIFRTLGHHHPIRTEQHDSRWLNDPKFISAHLISESDNPEDDKVYFFFRENAIDGEHSGKATHARIGQICKNDFGGHRSLVNKWTTFLKARLICSVPGPNGIDTHFDELQDVFLMNFKDPKNPVVYGVFTTSSNIFKGSAVCMYSMSDVRRVFLGPYAHRDGPNYQWVPYQGRVPYPRPGTCPSKTFGGFDSTKDLPDDVITFARSHPAMYNPVFPMNNRPIVIKTDVNYQFTQIVVDRVDAEDGQYDVMFIGTDVGTVLKVVSIPKETWYDLEEVLLEEMTVFREPTAISAMELSTKQQQLYIGSTAGVAQLPLHRCDIYGKACAECCLARDPYCAWDGSACSRYFPTAKRRTRRQDIRNGDPLTHCSDLHHDNHHGHSPEERIIYGVENSSTFLECSPKSQRALVYWQFQRRNEERKEEIRVDDHIIRTDQGLLLRSLQQKDSGNYLCHAVEHGFIQTLLKVTLEVIDTEHLEELLHKDDDGDGSKTKEMSNSMTPSQKVWYRDFMQLINHPNLNTMDEFCEQVWKRDRKQRRQRPGHTPGNSNKWKHLQENKKGRNRRTHEFERAPRSV
notes: Semaphorin 3A (SEMA3A), injected as analyte in SPR; also called SEMA3A; Sema3A
By Kd is commonly meant the constant that tells how readily two partners part at equilibrium. Regarding B1, the Kd turned out to be 0.67 nM.

B2: vascular endothelial growth factor A (ligand)
chain: APMAEGGGQNHHEVVKFMDVYQRSYCHPIETLVDIFQEYPDEIEYIFKPSCVPLMRCGGCCNDEGLECVPTEESNITMQIMRIKPHQGQHIGEMSFLQHNKCECRPKKDRARQENPCGPCSERRKHLFVQDPQTCKCSCKNTDSRCKARQLELNERTCRCDKPRR
modifications: Assumed to be VEGF165, the customary recombinant product, because the isoform is not printed. Mature residues 1-165 equal entry residues 207-395 with the exon 6a region 321-345 replaced by the …
As for B2, the Kd stood at 4.32 nM.
